Test results published in the supplement of paper PMC12764529.
± gives the half width of the 95% confidence interval.

Assay: folding stability dG unfold (combined trypsin and chymotrypsin); higher = more stable
Procedure, shortened: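 How resistant each design was to proteolysis was captured as K50, inferred by Bayesian fitting of sequencing counts. Unfolding free energy was then derived relative to a sequence-predicted unfolded-state K50 and a shared folded-state K50, per protease or combined. Digestion used trypsin and chymotrypsin at 11 threefold-diluted concentrations plus a no-protease condition, on mini-proteins under 80 residues without cysteine in a PA-tagged cDNA display construct. Designs were kept only when AlphaFold2 dimer inter-PAE was above 15.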

Point of comparison: “SAGGSAGGSAGGAIEEARDLAKEGGPWEATIPVYDPNGGPKTIKIRVEVERDPENGKFKSAGGSAGGSAGGS [r10_346_TrROS]”, “folding stability dG unfold” value -0.0783 ± 0.19 kcal/mol. Against it:
- SAGGSAGGSAGSSSFIRKGKDGSRITATPSPSYITISTFPLKGGGIVPSTKTTTLPPSLLSAGGSAGGSAGG [r11_88_JUSTAS] — lower, < -1 kcal/mol
- SADKEAVRKIAEKFMQEPGFEPRGISPDGHIMFRPPGQGRMYRIDIDVEKDNDGLDVKIPDIEPVPMPDSAG [r14_20_TrROS] — lower, < -1 kcal/mol
- SAGGSAGGSAGGSKIEVYKEPNKITIVIHPGNKPLVFTATEPIPIETLIKKAREAFPDASAGGSAGGSAGGS [r4_191_TrMRF] — within error, -0.0455 ± 0.13 kcal/mol
- SAGGSAGGSAGSEVEKARNAALEARRAGVEEVTITMPEELKEKVTALAKEEGINLKIESESAGGSAGGSAGG [r11_371_JUSTAS] — within error, -0.351 ± 0.36 kcal/mol
- SAGGSAGGSAGGPLPVTVTVLERTHYPEEGLYTVKTEGGTVITLPPELIDKHPPGSTVLLSAGGSAGGSAGG [r11_124_JUSTAS] — lower, < -1 kcal/mol
- SAGGSAGGSIPPGEEVPLRIKIWNPDNGKPRNEIPITMWVGDAEEIAEEFASTFPGYRVEIDPSAGGSAGGS [r12_21_TrROS] — within error, 0.102 ± 0.33 kcal/mol
- SSPVVVSESTDPNSSTKTITVTLPPNARVTLTLPGEPVETRPQPDATATLTTGPDALDITIEPLPPGVPLSA [r9_221_JUSTAS] — lower, -0.714 ± 0.24 kcal/mol
- SAGKTIYIQGPLDELRKLPEIKEVEKTGNHWTLELPNVPIHIEIEPPPPVPVVPPEMPKEQMKEYMKKMSAG [r5_2_TrROS] — within error, 0.316 ± 0.37 kcal/mol
- SAGGSAGGSAMRAVVVAFPPDGPPRVFPTDDLAPDERRVTFDPETGELALIEVLPEDGDPASAGGSAGGSAG [r3_356_TrMRF] — lower, < -1 kcal/mol
- SAGGSAGGSAGGGMILNITLIRPDGKPIVIEGPLDKPLYNPKKAGIENIPPEKLVKVEPRSAGGSAGGSAGG [r7_745_TrMRF] — lower, < -1 kcal/mol
- SAGGSAGGSGGMMVTITLPPGVPPSVVRAALEPLGVRVEVRPVPPVVPFRYPEPGELVFSPLGSAGGSAGGS [r12_80_JUSTAS] — lower, < -1 kcal/mol
- SAGGSAGGSAGGPSSLLDGTPVELSVSPVEVNSVSTVTLPNGSTVPVSKKVKKTVVSVVASAGGSAGGSAGG [r7_90_JUSTAS] — higher, 0.23 ± 0.097 kcal/mol
- SAAKPVVIEVGFDGKPVTVVVYPNPGRVRAYVPATNAVSEATVGEDGEVNLLLYNPADGKPLPANITVPSAG [r14_656_TrMRF] — lower, < -1 kcal/mol
- SAGGSAGGSMIVVPLERELDPSEPGLTKEEVKAILEAKGLDVVDIKVSTDPAKGLTRAVAKVKSAGGSAGGS [r12_1052_JUSTAS] — lower, < -1 kcal/mol
- SAGGMKITVTPSTDPNTPLTRETVTVPPTADPEAVAEKLRRAYPDGSTTTVTPRPDGTIVVTTTLPASAGGS [r8_255_JUSTAS] — within error, -0.291 ± 0.069 kcal/mol
- SAGGSAMTPQTLTLPDGTQVTVYYDPSTGKYTITTTTTTPTAQGTGPTTTTTKTVDSEEELLAYLSSAGGSA [r15_31_JUSTAS] — higher, 4.5 ± 0.2 kcal/mol
- SALEPGEWRKVTAEIPLPGGPLKLEIYEWPSNGHYYADIRNPGNGRPVEIPFPFDTPDDAVDEAKDFIRSAG [r14_65_TrROS] — within error, -0.625 ± 0.63 kcal/mol
- SAGGAPLAERTEPLPDGRTVRRVLEYDPEKRTVRVRTERWAPDGAAEPAEEVLDVPESATSPEFLLASAGGS [r8_461_JUSTAS] — lower, < -1 kcal/mol
- SAGGSAGGSVTAVPIEELIPLPTPRTLKVTGTVYVLPGGEVVTERTLTEPSPGTVTVETKTIPLSAGGSAGG [r6_727_JUSTAS] — lower, < -1 kcal/mol
- SAGGAPDIPILTASYSPDGVLYSSTTTPINGTLHYFPEDNPVVLATDPATGLTVPVGTLEDVKRLIASAGGS [r8_232_TrMRF] — within error, -0.37 ± 0.19 kcal/mol
- SAGGSAGGSGNPTPPAEPTVTLSTSDWNEVKERVEKAGLEYETFPGEGKVTLPASDFEKIKEESAGGSAGGS [r12_325_JUSTAS] — within error, -0.00313 ± 0.14 kcal/mol
- SAGGSAMVVVKITNPNGEKIEIEIEAETEEEAKKAAEELAKKLPKNVKVEVVKVEKVEVKDGKILKSAGGSA [r15_469_TrROS_Hall] — lower, < -1 kcal/mol
- SAGSSRIIFYPENNTYLIETPEGSFTLPETVTTTTPAPTGENPDRTVPRPTTTYVATELSLEEAEKLLSSAG [r5_234_JUSTAS] — within error, -0.149 ± 0.076 kcal/mol
- SAGGSAIKPGDPYVRIKFRMGNEPMEFTIPAEKIKKITVDDPDDQVTIRFPGNGRKFPMKLEEVEISAGGSA [r15_495_TrROS] — within error, -0.41 ± 0.25 kcal/mol
- VSPLDLEGPGGLPPSELRRVSVLREETDPSVGEKRLSPVGTLFVPKDTSPEEVEAIIAARPDITRVEVRLLS [r1_132_JUSTAS] — within error, 0.0944 ± 0.082 kcal/mol
- SAGGSAGSHNQSPDGITLDAPLSSEEEIEALVAEVKAAAPPTYTVTVERTRSPSTLSVDVIVTAAPSAGGSA [r15_80_JUSTAS] — within error, -0.895 ± 0.97 kcal/mol
- SAGGSAGGSAGPTITYHPDGRVRIDLHLPNGELLDTGVITPDEAVRLLLETGVRLRTIRPSAGGSAGGSAGG [r11_521_TrMRF] — within error, 0.166 ± 0.19 kcal/mol
- SAGGSITTEKSLPETNLTLKTTYEGDTETVEIYHHPESDTPVLLAKETVTFSPDGSVSRKSTVVKIESAGGS [r8_69_JUSTAS] — within error, -0.483 ± 0.27 kcal/mol
- SAGGGPMPKPVEEVVEEEEDGLRVTTRITYLPTSSTTVVRTTRTVFDPRNGRPLETEELTETVPPGSSAGGS [r16_709_JUSTAS] — within error, -0.181 ± 0.22 kcal/mol
- SAGGSAGGSAGGSDMEIVPRRIPDGFRLMVARNPEGTYTVQVWNPNGKPKWETIPPDEISAGGSAGGSAGGS [r4_120_TrROS] — lower, -0.485 ± 0.21 kcal/mol
- SAGGSAGGSELRVLDARPTPDGLVVNLVAPDRLLVTRVDTGADGSQSVSSVVLDAPESTEFDLSAGGSAGGS [r12_981_TrMRF] — lower, < -1 kcal/mol
- SAGGSAGGSAGPKSIPLDNATVTEFDSPNGDKVFIFSHPNKKKRLAILKDGKLVKEIPIESAGGSAGGSAGG [r11_1038_TrMRF] — within error, -0.26 ± 0.3 kcal/mol
- SAGGSMETTTLSSTPAELIATVEAEAAAAGKTISEITVTEDPATGLATVPVTIEITPAPALAPAARRSAGGS [r16_584_JUSTAS] — within error, 0.249 ± 0.21 kcal/mol
- SAGTVFVAHSDDRPPVAAPETGTVTLPAPDGARVTLRRLPDGTAVVTPDGGESRTLGPGARVEVRLLPASAG [r5_869_TrMRF] — lower, < -1 kcal/mol
- SAGGSAGGWFWVIKAEYPKNGRERSIQIPNEATDEDDVKEEVKELAEDLGAPIKKVEIEWIDPESAGGSAGG [r6_718_TrROS] — lower, < -1 kcal/mol
- SAGGSVTLPPEEARAYAEAHPDRDLVLSMRPDDSTVTLELSVDPAAPGALSVRRREVFDPAGNATVVDSAGG [r13_481_JUSTAS] — within error, -0.182 ± 0.15 kcal/mol
- SAGVKIKWEPIDRDPKNGHVYYSITIKVPKDGKPLDEIPIGMYQFDNDDGKWEPMPEEDIKQQAKDLLNSAG [r5_909_TrROS] — within error, -0.415 ± 0.52 kcal/mol
- SAGGSAGGSAAGFTAPVVQVRTENGKIYIDVKNSSVSLTVPENAEITPLESEVVKITPLPAPSAGGSAGGSA [r18_468_JUSTAS] — within error, 0.00621 ± 0.22 kcal/mol
- SAGGVIGTRKKVNKIEKPVPEGATTTPSIIGNTTILTTTAPDGSTVTVTLTKTEPIPGKPDVSEKYEASAGG [r13_804_JUSTAS] — within error, -0.265 ± 0.12 kcal/mol
- SMVYVPEKNVIIEESEKLFYDPNKPRDLRVKTTPVIEVSPSGEKKTLKTEITFYNPEGNPIFTEESEIEISA [r9_383_JUSTAS] — lower, < -1 kcal/mol
- SAGGSAGPMVKTTEFSAVYTGPGGVSRGPVAVTVEIPPGDPSNPVLTVTLPDGTPRTLAAGEVEAASAGGSA [r15_954_JUSTAS] — lower, -0.757 ± 0.27 kcal/mol
- SAGGSAGGSAPLVLVAPGDAPVTVYPDPETGTYVAVFPDGSVLVAPVVGDVVPVVLLPPGLASAGGSAGGSA [r18_405_TrMRF] — within error, -0.31 ± 0.23 kcal/mol
- SAGGSAGGSAMNVTTETRTDPVTGNTTTTTTYTDTGEVVTTTTTTPPETTTTTTTTTSLTKSAGGSAGGSAG [r3_126_JUSTAS] — higher, 0.524 ± 0.2 kcal/mol
- SAGGSAGGMKITITFPDGTKKEIEVESEEELLEAIKKLAEELGLEKEVTVTVEYNGKTYTITLKSAGGSAGG [r6_531_TrROS_Hall] — higher, 5.06 ± 0.32 kcal/mol
- SAGGSAGGSMPVTVTVTTPDGTTQTLTADAPPAQTFTVTVTGPDGDPRPVRVTVHGTTVTVEGSAGGSAGGS [r12_784_TrMRF] — lower, < -1 kcal/mol
- SAGGSVVTGVDEEELRAVAEALRAAGHTLADVRIERYPEDGTYRMTVTLVDPATAAPLADVLMVAKASAGGS [r16_750_JUSTAS] — higher, 0.312 ± 0.15 kcal/mol
